Results on five molecules are retold here after patent US20230265201A1 (published 2023).

For experiment [1], the target named is T1, rhesus recombinant CD70 (FLAG-TNC-rhesus CD70) (rhesus macaque (Macaca mulatta), UniProt F7GPA5 174-316).
T1 construct: also called rhesus Flag-TNC-CD70; Rhesus monkey; not shown: Flag tag and TNC trimerisation domain
T1 sequence: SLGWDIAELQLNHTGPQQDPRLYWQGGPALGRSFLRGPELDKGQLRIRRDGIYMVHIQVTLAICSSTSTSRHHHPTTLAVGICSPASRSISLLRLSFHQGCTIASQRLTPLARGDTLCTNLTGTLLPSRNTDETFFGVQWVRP
Description: inhibition ELISA: CD27 binding to FLAG-TNC-rhesus CD70. An excerpt:
In this assay, Flag-TNC-CD70 is captured by an anti-Flag mAb and binding of CD27-Fc is detected via a biotinylated anti-CD27 mAb and strep-HRP in the absence or presence of CD70 Fabs (FIGS. 2 and 3) or CD70 mAbs (FIG. 4). In FIG. 2B it can be seen that 27B3, which has an identical VH as 9D1, but contains a somewhat different light chain, seems to block binding of CD27 to CD70 more efficiently, which was in line with the better off rate of this Fab as measured on Biacore (data not shown). Table 3 indicates the blocking potency (expressed as IC50) for the various llama-human chimeric mAbs tested in the CD70 inhibition ELISA. […] FIG. 3 is a composite of an experiment testing llama CD70 Fabs for blocking activity (in the inhibition ELISA, see white bars) and for CD70 binding (binding ELISA, black bars). For the binding ELISA, Flag-TNC-CD70 is captured by an anti-Flag mAb and binding of the Fabs is detected using an anti-myc-HRP mAb, which recognizes the MYC tag fused to the C-terminus of the Fd fragment. For comparison purposes, known monoclonal antibodies to CD70 (SGN70 described in US 2010/0129362 A1, clone 1F6; and MDX69A7 described in WO2008/074004FIGS. 5A and 5B) were tested in parallel. […] Of interest is clone 59D10, which as Fab has no blocking activity, but when converted into a chimeric IgG was antagonistic (see Table 3). […]

For experiment [2], the target named is cynomolgus monkey Flag-TNC-CD70 (cynomolgus monkey). In words: CD27-CD70 inhibition ELISA, cynomolgus Flag-TNC-CD70.
Experiment [3] deals with T1, rhesus recombinant CD70 …. In words: CD27-CD70 inhibition ELISA, rhesus Flag-TNC-CD70. As for the experimental part:
In this assay, a microtiter plate (Nunc Maxisorb) was first coated with 100 µl anti-FLAG M2 monoclonal antibody (Sigma Aldrich, F3165) at 1250-fold dilution in PBS (to achieve a final concentration of approximately 3.5 µg/ml) overnight at 4° C. The plate was washed once with PBS-Tween and incubated at RT for 2 hours with 300 µl PBS-1% casein. The plate was washed a further three times with PBS-Tween. 100 µl of 5 ng/ml (80 pM) Flag-TNC-CD70 (The Journal of Immunology, 2009, 183: 1851-1861) diluted in PBS-0.1% casein was added to the plate and incubated at RT for 1 hour while shaking. The plate was washed five times with PBS-Tween. The CD70 mAb to be tested was added to the plate; various concentrations were achieved by diluting the stock antibody solution in PBS-0.1% casein. Immediately thereafter, 50 µl of 1 µg/ml (final concentration 6.5 nM) recombinant human CD27 Fc chimera (R&D systems 382-CD, MW = 46.5 kDa) was added, and incubated at RT for 1 hour while shaking. The plate was washed five times with PBS Tween. 100 µl of biotinylated anti-CD27 (eBioscience 13-0271), diluted 500-fold in PBS-0.1% casein, was added, and the plate incubated at RT for a further hour, while shaking. The plate was washed five times with PBS Tween. […] 100 µl TMB was added to the plate and the OD at 620 nm was measured. […]

The target of experiment [4] is T2, human CD70 on the surface of cells (human, UniProt P32970 1-193).
T2 sequence (looked up): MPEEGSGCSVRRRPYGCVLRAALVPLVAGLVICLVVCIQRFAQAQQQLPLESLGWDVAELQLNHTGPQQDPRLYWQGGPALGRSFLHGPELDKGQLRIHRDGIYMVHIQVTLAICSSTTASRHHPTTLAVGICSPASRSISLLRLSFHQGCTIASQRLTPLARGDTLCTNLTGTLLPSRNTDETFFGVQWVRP
Description: cell-based or functional assay.

Experiment [5] addresses T1, rhesus recombinant CD70 …. In words: Biacore off-rate, Fab over immobilised rhesus CD70.
The target of experiment [6] is T3, recombinant human CD70 (Flag-TNC-CD70) (human, UniProt P32970 39-193).
T3 construct: extracellular domain; also called recombinant CD70; human Flag-TNC-CD70; not shown: Flag tag and TNC trimerisation domain
T3 sequence (looked up): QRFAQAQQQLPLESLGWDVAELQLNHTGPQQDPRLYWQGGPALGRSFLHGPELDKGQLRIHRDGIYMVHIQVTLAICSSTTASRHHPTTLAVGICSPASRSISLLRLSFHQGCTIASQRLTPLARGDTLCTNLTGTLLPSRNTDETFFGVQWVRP
Description: inhibition ELISA: CD27-Fc binding to anti-Flag-captured Flag-TNC-CD70. As for the experimental part: From selected phage transfected into TG1, individual colonies were picked randomly for growth in 96 well plates. After IPTG induction according to standard protocols periplasmic fractions (peris) containing Fabs were prepared. […] In this assay, Flag-TNC-CD70 is captured by an anti-Flag mAb and binding of CD27-Fc is detected via a biotinylated anti-CD27 mAb and strep-HRP in the absence or presence of CD70 Fabs (FIGS. 2 and 3) or CD70 mAbs (FIG. 4). In FIG. 2B it can be seen that 27B3, which has an identical VH as 9D1, but contains a somewhat different light chain, seems to block binding of CD27 to CD70 more efficiently, which was in line with the better off rate of this Fab as measured on Biacore (data not shown). Table 3 indicates the blocking potency (expressed as IC50) for the various llama-human chimeric mAbs tested in the CD70 inhibition ELISA. […] FIG. 3 is a composite of an experiment testing llama CD70 Fabs for blocking activity (in the inhibition ELISA, see white bars) and for CD70 binding (binding ELISA, black bars). For the binding ELISA, Flag-TNC-CD70 is captured by an anti-Flag mAb and binding of the Fabs is detected using an anti-myc-HRP mAb, which recognizes the MYC tag fused to the C-terminus of the Fd fragment. […]

Experiment [7] concerns the target T4, rhesus recombinant CD70 (FLAG-TNC-rhesus CD70) (rhesus macaque (Macaca mulatta)) (UniProt F7GPA5).
T4 sequence: T1 sequence
Description: CD27-CD70 inhibition ELISA, rhesus Flag-TNC-CD70.

Experiment [8] addresses T3, recombinant human CD70 (Flag-TNC-CD70). Description: CD27-CD70 inhibition ELISA, human Flag-TNC-CD70.
For experiment [9] the target is unchanged. In words: blocking ELISA of Example 19: CD27 Fc chimera on anti-Flag-captured Flag-TNC-CD70.

Numbering of substitutions follows the chain as printed.

B1: 57B6 chimeric llama-human mAb (antibody, V domains shown)
VH: QLQLVESGGGLVQPGGSLRLSCAASGFSFSHYAMSWVRQAPGKGLEWVSGDNTYDGGTRYQDSVKGRFTISRDNGKNTLYLQMNSLKPEDTAVYYCAKDTGRGIMGEYGMDYWGKGTLVTVSS
VL: QTVVTQEPSLSVSPGGTVTLTCGLKSGSVTSSNYPAWYQQTPGQAPRLLIYNTNSRHSGVPSRFSGSISGNKAALTITGAQPEDEADYYCALYMGSGSANAMFGGGTHLTVLG
With B1, in [1], the IC50 came to 0.135 µg/mL.

B2: ARGX-110 (non-fucosylated human IgG1 of germlined 27B3 clone 41D12) (antibody, V domains shown)
VH: EVQLVESGGGLVQPGGSLRLSCAASGFTFSVYYMNWVRQAPGKGLEWVSDINNEGGTTYYADSVKGRFTISRDNSKNSLYLQMNSLRAEDTAVYYCARDAGYSNHVPIFDSWGQGTLVTVSS
VL: QAVVTQEPSLTVSPGGTVTLTCGLKSGSVTSDNFPTWYQQTPGQAPRLLIYNTNTRHSGVPDRFSGSILGNKAALTITGAQADDEAEYFCALFISNPSVEFGGGTQLTVLG
notes: also called ARGX-100; 41D12 (ARGX-110)
Regarding B2, the values for the half-inhibitory concentration (IC50) in experiment [2] and in [3] were 0.048 µg/mL and 0.075 µg/mL, respectively.

B3: 27B3 chimeric llama-human mAb (antibody, V domains shown)
VH: B2 VH with S75A, S78T, Y80T, R87K, A88P, V93L, A97V, L117Q, T119I, S121A
VL: B2 VL with D32T, D62S, L69S, G70E, A82P, D83E, G111S
notes: also called SIMPLE antibody 27B3; mAb 27B3
For B3, the “Raji co-culture assay IC50 relative to 27B3” value in experiment [4] was 1 fold relative to 27B3. Further, the IC50 in experiment [1] came out at 0.15 µg/mL.

B4: 59D10 Fab (Fab, V domains shown)
VH: EVQLVESGGGLVQPGGSLRLSCAASELSFSISEMTWVRQAPGKGLEWVSGISGVTGGSSTSYADSVKGRFTISRDNDKNTLYLQMNSLIPEDTAVYYCATTSGTYYFIPEYEYWGQGTQVTVSS
VL: QSVLTQPPSVSGSPGKTVTISCAGTSSDVGYGYYVSWYQQFPGMAPKLLIYDVNKRASGIADRFSGSKAGNTASLTISGLQSEDEADYYCASYRSSANAVFGGGTHLTVLG
notes: Llama-derived Fab from phage display; MYC tag at C-terminus of Fd
B4: the binding result in [5] was “no binding”.

B5: SGN70 mAb (antibody, INN chains, looked up, V domains shown)
VH: QVQLVQSGAEVKKPGASVKVSCKASGYTFTNYGMNWVRQAPGQGLKWMGWINTYTGEPTYADAFKGRVTMTRDTSISTAYMELSRLRSDDTAVYYCARDYGDYGMDYWGQGTTVTVSS
VL: DIVMTQSPDSLAVSLGERATINCRASKSVSTSGYSFMHWYQQKPGQPPKLLIYLASNLESGVPDRFSGSGSGTDFTLTISSLQAEDVAVYYCQHSREVPWTFGQGTKVEIK
With B5, the concentration for half-maximal inhibition (IC50) in experiment [6] is 0.33 µg/mL; in experiment [2] it was 0.112 µg/mL; in [7] it was 0.178 µg/mL; in experiment [8] it was 0.054 µg/mL; in experiment [9] it was 4.97 µg/mL. Besides, in experiment [4], the IC50 of IL-8 secretion, Raji / HT1080-CD27 co-culture was 0.055 µg/mL.
